Values of other authors, collected in article PMC3823252.

Target: KpOmpA (Klebsiella pneumoniae) (UniProt P24017)
Sequence (P24017 2-344): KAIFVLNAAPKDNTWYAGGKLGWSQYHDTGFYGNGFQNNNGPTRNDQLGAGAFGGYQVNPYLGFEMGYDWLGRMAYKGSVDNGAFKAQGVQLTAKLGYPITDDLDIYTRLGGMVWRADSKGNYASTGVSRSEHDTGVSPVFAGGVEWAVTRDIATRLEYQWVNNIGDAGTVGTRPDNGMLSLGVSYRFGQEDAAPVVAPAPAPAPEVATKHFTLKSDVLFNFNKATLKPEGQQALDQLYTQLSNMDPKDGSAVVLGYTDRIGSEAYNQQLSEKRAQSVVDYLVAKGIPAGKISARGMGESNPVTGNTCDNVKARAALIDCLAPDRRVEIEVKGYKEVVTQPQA

Chain of PTX3 (P26022 18-381): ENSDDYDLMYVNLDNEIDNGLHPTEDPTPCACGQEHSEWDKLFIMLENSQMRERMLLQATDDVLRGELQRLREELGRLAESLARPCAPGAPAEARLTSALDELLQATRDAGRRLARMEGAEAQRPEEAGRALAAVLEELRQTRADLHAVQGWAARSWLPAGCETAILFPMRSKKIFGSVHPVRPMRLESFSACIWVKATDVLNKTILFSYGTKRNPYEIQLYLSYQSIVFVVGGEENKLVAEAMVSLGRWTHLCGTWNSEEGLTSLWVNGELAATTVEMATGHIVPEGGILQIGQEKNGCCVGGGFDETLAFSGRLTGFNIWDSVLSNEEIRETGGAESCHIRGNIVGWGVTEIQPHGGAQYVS

PTX3 (from UniProt P26022)
Kd: 50 nM
